Assay: yeast display, Sf9 membrane polyspecificity reagent, FACS + sequencing; frameworks hold sequencing errors
Summary of the method: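 After 36–48 hours of galactose induction, yeast (Saccharomyces cerevisiae BJ5465) displaying a synthetic nanobody library were stained at 4 °C for 1 hour with 10% biotinylated, detergent-solubilized Sf9 membrane reagent. Streptavidin microbeads enriched the stained cells before FACS sorting into low and high (top ~1%) gates on anti-HA and streptavidin fluorescence. Each clone's polyreactivity label reflects its gate of origin.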

Sequence	polyreactivity (PSR sort gate)
QVQLVESGGGVVQAGGSLRLSCAASGGIFRRNAMGWYRQAPGKERELVAAITRSGASTYDADSVKGRFTISRDNAKYTVYLQMNSLKPEDTAVYYCADAQLSAEYDYWGQGTQVTVTS	low polyreactivity
QVQLVESGGGVVQAGGSLRLSCAASGGTFGKYAMGWYRQAPGNEREFVAAISKSGGSTFYADSVKGRFTISRDNAKNTVYLQMNSLKPEDTAVYYCAVRWYYRGRSLYDYWGQGTQVTVSS	high polyreactivity
QVQLVESGGGVVQAGGSLRLSCAASGRIFGGYAMGWYRQAPGKERELVAAISGSGGRTDYADSVKGRFTISRDNAKNTVYLQMNSLKPDDTAVYYCNKGYVYGHEYWGQGTQVTVSS	high polyreactivity
QVQLVESGGGVVQAGGSLRLSCAASGRIFLTNALGWYRQAPGKVREVVADISRGGSTYADSVKGRFTISRDTAKNTVYLQMTSLKPEDTAVDYCAADEYSPGDSRTRYAYWGQGTQVPVSS	low polyreactivity
QVQLVESGGGVVQAGGSLRLSCAASGRIFRYYTMGWYRQAPGKERELVAAITSSGGSTYYADSVKGRFTISRDNAKNTVYLQMNSLKPEDTAVYYCATRSYVFAWEFNYWGQGSQVTVSS	high polyreactivity
QVQLVESGGGVVQAGGSLRLSCAASGRIFYKYAMGWYRQAPGKAREFVATISSSGGSTYYADSVKGRFTISRDNAKNTAYLQMNSLKPEDTAVYYCAARYGRVTREYWGQGTQVTVSS	high polyreactivity
QVQLVESGGGVVQAGGSLRLSCAASGRTFGSNAMGWYRQAPGKERELVAGITTSGGSTNYADSVKGRFTISRDNAKNTVYLQMNSLKPEETAVYFCAVANYGIGYPHYIFDYWGQGTQVTVSS	low polyreactivity
QVQLVESGGGVVQAGGSLRLSCAASGRTFRSYAMGWYRQAPGKERELVAAISWSGGSTYYADSVKGRFTISRDNAKNTVYLQMNSLKPEDTAVYYCAATVGQRKYQLGYWGQGTQVTVSS	high polyreactivity
QVQLVESGGGVVQAGGSLRLSCAASGSIFAGIAMGWYRQAPGKERELVADITSGDSTYYADSLKGRFTISRDNAKNTVYLQMNSLTPEDTAVYYCNNQLRVPQGAFFWFHGMDYWGQGTQVTVSS	low polyreactivity
QVQLVESGGGVVQAGGSLRLSCAASGSIFTYYAMGWYRQAPGKERELVAAISYGGGSTNYADSVKGRFTISRDNAKYTVYLQMNSLKPEDTAVYYCNRVLGVNYGYWGQGTQVTVSS	high polyreactivity
QVQLVESGGGVVQAGGSLRLSCAASGSNFDRNAMGWYRQAPGKERELVAAISRSGGSTNYADSVKGRFTISRDNAKNTFYLQMNSLKPEVTAVYYCAAVRTHWFGQGWAVYWFEYWGQGTQVTVSS	low polyreactivity
QVQLVESGGGVVQAGGSLRLSCAASGSTFLPYAMGWYRQAPGKERELVAAITWRTGSTYYADSVKGRFTSSRDNAQNTVYLQMNSLKPEDTAVYYCNAKQRGKFDYWGQGTQVTVSS	low polyreactivity
QVQLVESGGGVVQAGGSLRLSCAASGSTFSAYTMGWYRQAPGKERELVAAISRSGVSTYYADSVKGRFTISRDNAKNTVYLQMNSLKPEDTAVYYCAAPYFVSYQGYDYCGQGTQVTVSS	high polyreactivity
QVQLVESGGGVVQAGGSLRLSCAASGSTFYSYAMGWYRQAPGKERELVAAISSGGGRTYYADSVKGRFTISRDNAKNTVYLQMNSLKPEDTAVYYCAASYWYRDYYYWGQGTQVTVSS	high polyreactivity
QVQLVESGGGVVQAGGSLRLSCAASGSTLVVNGLGWYRQAPGKDRELVAAISWSGGTTYYADSVKGRFTISRDNAKNTVDLQMNSLKPEDTAVYYCAADSYTEVDYWGQGTQVTVSS	low polyreactivity
QVQLVESGGGVVQAGGSLRLSGAASGITFSVNAMGWYRPAPGKEREFVAAISSSGGSTYYADSVKGRFTISRDNAKNTVYLQMNSLKPEDTAVYYCAVDYYSYYYEDDYWGQGTQVTVSS	high polyreactivity
QVQLVESGGGVVQAGGSLRLSSAASGIIFKRYAMGWYRQAPGKEREFVAAISRSGVRTYYADSVKGRFTISRDNAKNTVFLQMNSLNPEDTAVYYCAAEFANYRDTGESVYWFYYWGQGTQVTVSS	high polyreactivity
QVQLVESGGGVVQAGGTLRLSCAASGSLFPYNVMGWYRQAPGKERELVAVITGSTGRTYYADSVKGRFTISRDNAKNTVYLQMNSLKPEDTAVYYCAKRSYWAPYDYWGQGTQVTVSS	high polyreactivity
QVQLVESGGGVVQAGRSLRISCAASGSTFRGYAMGWYRQAPGKDRELVATISGSDGTTYYADSVKGRFTISRDYAKNTVYLQMNCLNPEDTAVFYCDAGESFEMYYWGQGSQVTVSS	low polyreactivity
QVQLVESGGGVVQAGRSLRLSCAASGRLFVRNAMGWYRQAPGKDRELVAAITSVGDTYYADSVKGRFTISRDNAKNTVYLQMNSLKPVDTAVYYCAVYLWSGWGYPEYNYWGQGTQVTVSS	low polyreactivity
QVQLVESGGLLVQAGGSLRLRGAASGSTIPRNAMGWYRQAPGKERELVASITSDGGSTYYADSVKGRFTISRDNAQITVYLQMNSLNPEDTAVYYFNAYTRYGLFAYDYWGQGTQVTVSS	high polyreactivity
QVQLVESGGPIVQAGGSLRISCAASGRTYAYKTMGWSRQAPGKERELVAGINSSGGSTYYADSVKGRFTISRDNAKNTVYLQMNSLKPEDTAVYDCAADNSPRPYDSWGQGTQVTVSS	high polyreactivity

Sequence	polyreactivity (PSR sort gate)
QVQLVESGGRLFQAGGSLRLSCAASGRSYRYYAMGGYTKAPGKERELFAAISSGTRTNYADSVKGRFTISRDNAKNTVYFQMNSLKPEDTAVYYCKADGYRGYYGRNKSKYDFWGQGTQVTVSS	high polyreactivity
QVQLVESGGRLLQAGGSLRLSCAASGYTIDPYDMGWYRQAPGKERELVASISWSGGDTYYADSVKGRFSISRDNAKNTVYLQMNRLKPEDPAVYYCAADPGYAANRTEWRDFDYWGQGTQVTVSS	low polyreactivity
QVQLVESGGRLVEAGGSLSLSWAASGRIFPKYPMGWYRQAPGKERELVAAISRRGSSTYYADSVQGRFTISRDNAKNTVYLQMNSLTPEDTAVYYCATDARDGHDYWGQGSQVTVSS	high polyreactivity
QVQLVESGGRLVHAGGSLRISCAASGSILTRNAMGWYRPAPGKERELVAASTKRGGTTYYADSVKGRFTISRDNAKNTVYLQMNSLKQEDNAVYYCAARNGGRFSFEFNYWGQGTQVTVSS	high polyreactivity
QVQLVESGGRLVKAGGSLRLSCAASGRTFSSYAMGWYRHAPGKERELVAAISSGGSTYYADSVKGRFTISRDNAKNTVYILMNSQIPEDTAVYYCNRRLYYKIGRGFSYYWGQGTQVTVSS	high polyreactivity
QVQLVESGGRLVQAGASLRLSCAASGFTLHWYAMGWYRQAPGKERELVASITNTGRTYYADSVKGRFTISRDNAKNTVYLQINILKPEDTAVYYCAAGTQYSHYYVADYCRDYWGQGTQVTVSS	high polyreactivity
QVQLVESGGRLVQAGGILRLSCAASGIIFKDYAMGWYRQATGKERELVAAISWSGSSTYYADSVKGRFTISRDNAKNTVYLQMNSLKPEDTAVYYCNAFPGDYRYDYWGQGTQVTVSS	high polyreactivity
QVQLVESGGRLVQAGGRLRLSCDASGYIISSYVMGWYRQAHGKDKELVAAINRRGGSTYYADSVKGRFTISRDNAKNTVYLQMNSLKPEDTAVYYCAADGLSGYGSGGYYGMGYWGQGTQVTVSS	high polyreactivity
QVQLVESGGRLVQAGGSIRLSCAASGGIFTAYAMGCYRQAPGKEREFVAGIDRSGGRTYYADSVKGRFTISRDNAKNNVYLQMNSLKPEDTAVYYCYARGYVYQNQLYYYWGQGSQVTVSS	high polyreactivity
QVQLVESGGRLVQAGGSLRLRGAASGNTNIPNAMGWYRQAPGKERELLAAIRASGGSTYYADSVKGRFTISRDNAKNTVYFQLNSLKTEDTSVYYCNADIWYKTYDYWGQGTQVTVSS	low polyreactivity
QVQLVESGGRLVQAGGSLRLSCAASGFIFCLNAMGWYRHAQGKERELVATIDNSGGSTYADSVKGRFTISRDNAKNTVYLQMNSLKPEVTAVYYCARDDGLLSYGYWGQGTQVTVSS	low polyreactivity
QVQLVESGGRLVQAGGSLRLSCAASGFIFVDYAMGWYRQAPGKERELVAAITYDGGSTYYADSVKGRFTISRDNAKNTVYLPMNSLKPEDTAVYYCATQGLWIFVVVEMDYWGQGTQVTVSS	low polyreactivity
QVQLVESGGRLVQAGGSLRLSCAASGFSFRGNAMGWYRQAPGKERELVATISRGGNTNYADSVKGRFTISRDNAKNTVYLQMNSLKPEDTAVYYCAAVSYIRSKVAYNYWGQGTQVTVSS	low polyreactivity
QVQLVESGGRLVQAGGSLRLSCAASGFTFDSYDMGWYRQEPGKERELVAAITWSGGSTYYADSVKGRFTISRDNAKNTVYLQMNSLKPEDTAVYYCNADTGTYWVPWYHDGYDYWGQGTQVTVSS	low polyreactivity
QVQLVESGGRLVQAGGSLRLSCAASGFTFGENAMGWYRQAPGKERELVAAITSGDGTSYADSVKGRFTISRDNAKNTVYLQMNSLKPEDTAVYYCAADGGDELYYSTYDYWGQGTQVTVSS	low polyreactivity
QVQLVESGGRLVQAGGSLRLSCAASGFTFWNYAMGWYRQAPGKERELVAAISRSGTSTYYADSVKGRFTISRDYAKNTVYLQMNSLKPEDTAVYYCNVLRVKSITYLMDYWGQGTQVTVSS	high polyreactivity
QVQLVESGGRLVQAGGSLRLSCAASGIIFRFYPMGWSRQAPGKERELVAAIRTSGGSTYYADSVKGRFTISRDNAKNTVYLQMNSLKPEDTAVYYCAAGPRAYSYRIYALYYWGQGTQVTVSS	high polyreactivity
QVQLVESGGRLVQAGGSLRLSCAASGITIRWYAKGWYRQAPGKERELVSRIDGRGASTYADSVKGRFTSSRDNAKNTVYLQMNRLKPEDTAVYYCAVAQVRVSYLWVRKFYYWGQGTQVTVSS	high polyreactivity
QVQLVESGGRLVQAGGSLRLSCAASGLIFVHYAMGWYRQSPGKERELVAAISAGGGSTYYADSVKGRFTISRDNAKNTVYLQMNSLKPEDTAVYYCNARVVNYVRPRTGAREYDFWGQGTQVTVSS	high polyreactivity
QVQLVESGGRLVQAGGSLRLSCAASGRIFGYYAMGWYRQAPGKERELVAAISSGGNTYYADSVKGRFTISRDNAKNTVYLQMNSLKPEDTAVYYCNEVYVGWQYGYDYWGQGTQVTVSS	low polyreactivity
QVQLVESGGRLVQAGGSLRLSCAASGRIFNRYAMGWYRQAPGKERELVAAITRGGSTYYADSVKGRFTMSRDNAKITVYLQMNSLKPEDSAVYYCAGRVGYPYYYWGQGTQVTVSS	high polyreactivity
